Among the data in article doi:10.1101/247270 are stoichiometry N values, retold here.

The assay addresses Dansyl-calmodulin (dansyl-CaM), purified, P0DP23. The experiment in a line: other fluorescence titration. Particulars: remark: other sources report otherwise.

B1: Regulator of G Protein Signaling 14 (RGS14), purified recombinant protein, O08773 1-544 (natural protein)
chain: MPGKPKHLGVPNGRMVLAVSDGELTSTSGSQAQGEGRGSSLSIHSLPSGPSSPFSTDEQPVASWAQSFERLLQDPRGLAYFTEFLKKEFSAENVTFWQACERFQQIPASDTKQLAQEAHNIYHEFLSSQALSPVNIDRQAWLSEEVLAQPRPDMFRAQQLQIFNLMKFDSYARFVKSPLYQECLLAEAEGRPLREPGSSHLGSPDTARKKPKLKPGKSLPLGVEELGQLPLAEGRPLRKSFRREMPGGAVNSALRRESQGSLNSSASLDLGFLAFVSSKSESHRKSLGSGEGESESRPGKYCCVYLPDGTASLALARPGLTIRDMLAGICEKRGLSLPDIKVYLVGKEQKALVLDQDCTVLADQEVRLENRITFQLELVGLERVVRISAKPTKRLQEALQPILAKHGLSLDQVVLHRPGEKQLVDLENLVSSVASQTLVLDTLPDAKTREASSIPPCRSQGCLPRTQTKDSHLPPLSSSLSVEDASGSTGKRQTCDIEGLVELLNRVQSSGAHDQRGLLRKEDLVLPEFLQLPSQRPGSQEAPP
modifications: here or on the partner: dansyl label (position not given)
One may read the stoichiometry N as a count of units in the complex or per binding partner. B1 registered a stoichiometry N of 1.
